Target: T1, wild type bacteriophage T7 (bacteriophage T7, UniProt P19726 1-345; P19727 1-398)
T1 construct: Whole phage particle without a homing peptide, used as the control; also called WT T7; wild type T7
T1 sequence 1: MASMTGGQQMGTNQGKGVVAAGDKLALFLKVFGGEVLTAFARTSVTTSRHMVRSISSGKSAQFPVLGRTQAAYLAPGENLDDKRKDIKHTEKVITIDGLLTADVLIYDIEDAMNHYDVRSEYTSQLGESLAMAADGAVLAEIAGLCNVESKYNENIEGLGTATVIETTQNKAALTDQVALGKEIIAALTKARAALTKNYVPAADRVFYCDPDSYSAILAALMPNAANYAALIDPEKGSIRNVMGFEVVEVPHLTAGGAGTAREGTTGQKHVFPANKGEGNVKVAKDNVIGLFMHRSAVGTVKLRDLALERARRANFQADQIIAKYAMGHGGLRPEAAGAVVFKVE
T1 sequence 2: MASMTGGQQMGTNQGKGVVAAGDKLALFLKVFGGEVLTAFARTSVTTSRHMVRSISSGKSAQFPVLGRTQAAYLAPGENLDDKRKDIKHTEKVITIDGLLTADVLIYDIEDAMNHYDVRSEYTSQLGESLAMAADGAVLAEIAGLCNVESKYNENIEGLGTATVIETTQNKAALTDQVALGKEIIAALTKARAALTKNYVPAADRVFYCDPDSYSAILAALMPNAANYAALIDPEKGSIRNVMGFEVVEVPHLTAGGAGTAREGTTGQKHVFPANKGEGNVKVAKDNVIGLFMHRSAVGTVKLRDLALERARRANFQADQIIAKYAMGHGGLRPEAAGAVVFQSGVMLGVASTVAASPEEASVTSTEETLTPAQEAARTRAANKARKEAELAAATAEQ
Assay: confocal fluorescence microscopy of B16F10 cells, anti-T7 antibody staining after washing

B1: grp78 on B16F10 mouse melanoma cells (receptor)
chain: not shown
notes: whole, on cells; The assay was done on whole B16F10 cells; also called receptor for pep42; B16F10 cells
B1: no binding (tested: 1×10^7 PFU of phages).

Source: patent US20210009963A1 (LYSENTECH, published 2021)
